US9657081B2, “Inhibiting peptides derived from triggering receptor expressed on myeloid cells-1 (TREM-1) TREM-like transcript 1 (TLT-1) for treatment of cardiovascular diseases” (INSERM (Institut National de la Sante et de la Recherche …, priority 2013, dated 2017)

Molecular target: T1, TREM-1 (Sus scrofa, UniProt Q6TYI6)
T1 construct: endogenous in cells; host or cells: living mini-pigs (in vivo)
T1 sequence (Q6TYI6 21-238): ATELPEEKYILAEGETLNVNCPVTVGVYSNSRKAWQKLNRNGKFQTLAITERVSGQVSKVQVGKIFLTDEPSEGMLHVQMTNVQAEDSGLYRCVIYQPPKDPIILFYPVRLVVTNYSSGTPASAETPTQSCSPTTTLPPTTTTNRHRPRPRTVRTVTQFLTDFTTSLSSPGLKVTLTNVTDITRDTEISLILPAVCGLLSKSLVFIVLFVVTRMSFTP
Test: Mini-pig model of sepsis (peritonitis): sepsis-induced hypotension and cardiac dysfunction
Type: in vivo, mini-pig (Sus scrofa domestica)
Protocol: Adult male mini-pigs (Sus scrofa domestica, Vietnamese pot-belied mini-pigs, 30-40 kg) were purchased from Elevage Ferry (Vosges, France). Before surgery, animals were fasted overnight with free access to water. Preanesthesia was performed through intramuscular administration of ketamine (10 mg/kg) and midazolam (0.1 mg/kg). Anesthesia was induced and maintained with intravenous pentobarbital (initial bolus: 10 mg/kg, and continuous administration 6-8 mg/kg/h), intermittent sufentanyl (10 μg), and pancuronium (4 mg) if necessary. Animals were mechanically ventilated (tidal volume 8 ml/kg, PEEP 5 cm H2O, FiO2 0.21, respiratory rate 14-16 breaths/min adjusted to maintain normocapnia). Left jugular vein was exposed and a triple-lumen line was inserted. Right jugular vein was also catheterized and a Swan-Ganz catheter was positioned allowing the continuous recording of cardiac output, SvO2, and right atria and pulmonary arterial pressures. A right carotid arterial catheter was inserted for continuous measurement of arterial pressure. A catheter in the bladder allowed urine collection.
After instrumentation, a midline laparotomy was performed to collect feces from the left colon: 1.5 g/kg were suspended in 200 mL of 0.9% NaCl and incubated at 38° C. for 2 hours. After surgery, a tube was left in place for the peritonitis induction and ascites drainage.
After surgery, animals were allowed to recover for 2 hours before baseline measurements (defined as ‘H0’). Normal saline was continuously administered (10 mL/kg/h) throughout the study. Body temperature was kept constant (±1° C.) using heating pads or cooling.
After baseline data collection (H0), peritonitis was induced by administration of autologous feces through the abdominal tube which was subsequently maintained clamped. After 2 hours (H2), animals were randomized to receive LR12 (LR12 group, n=6) or the vehicle (normal saline) alone (Control group, n=5). A bolus of 5 mg/kg (in 60 mL) was intravenously delivered over 30 minutes, then a 1 mg/kg/h (15 mL/h) infusion was started and lasted throughout the study period.
Animal care was then provided by an experienced intensive care physician with strict adhesion to the following guidelines throughout the study period:
i) Hemodynamic targets: the main objective was to maintain mean arterial pressure (MAP) above 85 mmHg. To achieve this goal and in addition to the maintenance 0.9% NaCl administration (7 mL/kg/h), hydroxyethyl starch (up to 20 mL/kg for the entire study period) (HES 130/0.4, Voluven®, Fresenius) was allowed provided that central venous pressure (CVP) and pulmonary artery occlusion pressure (PAOP) was <18 mmHg. When hydroxyethyl starch maximal volume was reached, a continuous infusion of norepinephrine was started up to 10 μg/kg/min.
Hemodynamic parameters were continuously monitored including MAP, mean pulmonary artery pressure (MPAP), right atrial pressure (RAP), cardiac output (CO), cardiac index (CI), and SvO2. Systemic oxygen delivery (DO2) and systemic oxygen uptake (VO2) were calculated by the Swan-Ganz monitor. Cardiac Power Index (W/m^2) was calculated as MAP×CI/451 (24).

LQEEDAGEYGCM (listed as Homo sapiens) [TLT1-LR12]
animals in which norepinephrine was started by H12 to maintain MAP >85 mmHg (mini-pig peritonitis): 1/6 | volume rescucitation (mini-pig peritonitis, 5 mg/kg bolus then 1 mg/kg/h i.v.): 6500 ± 800 mL | progressive lactic acidosis (p=0.0005): largely attenuated | cardiac failure (cardiac index, cardiac power index, SvO2, DO2) (versus controls): significant beneficial effects in attenuating cardiac failure | norepinephrine infusion rate needed to maintain blood pressure (versus controls): significantly lower
